In the supplement of paper PMC10724198:
± gives the standard deviation of the averaged measurements.

System: Saccharomyces cerevisiae
Assay: protein stability index of tFT-peptide fusion (C-terminal peptide) (PSI (0-1 scale)); higher = more stable (slower turnover)
Conditions: genetic background: wild type; temperature: 30 C
Description: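 Multiplexed protein stability (MPS) profiling in S. cerevisiae. Random 12-aa peptides (tFT-X12 library) are fused to the C-terminus of a sfGFP-mCherry tandem fluorescent timer, after mCherry and a GGGS linker. Cells are FACS-sorted into 8 mCherry/sfGFP bins and deep-sequenced. The protein stability index (PSI) is the read-weighted bin average, scaled from 0 (unstable) to 1 (stable). Only peptides with >10 reads are reported; cells were grown at 30 °C in SC-His with glucose.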
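Further: PSI is a weighted mean of sequencing reads over stability bins, variants kept only with over 10 reads, mCherry proximal and sfGFP distal, peptide attached via GGGS linker.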

Sequence | protein stability index
AACNGGPMNQTR | 0.7 ± 0.086
AAPKSGARASLW | 0.728 ± 0.084
AAQDTRAHYRTR | 0.704 ± 0.044
AAREVSPGNVCH | 0.731 ± 0.065
AARSEVASAAGR | 0.643 ± 0.016
AASPHHPSQTAL | 0.6831 ± 0.0063
AASSDGWHTGGA | 0.694 ± 0.0032
AAVLFVHATSHE | 0.685 ± 0.061
AAWLSQLNKVNV | 0.6679 ± 0.0014
ACCPPRLAPPPL | 0.675 ± 0.016
ACGALAKMILFW | 0.663 ± 0.059
ACPAPPPPQLPR | 0.593 ± 0.031
ACRLWWRRGGEG | 0.61 ± 0.045
ACRPRPPLSRSP | 0.739 ± 0.032
ACSTALPFSFAS | 0.689 ± 0.0074
ACVSWLPVPRQS | 0.6964 ± 0.0062
ADGLVGLLLSVV | 0.62 ± 0.024
ADMLETFSVHLG | 0.666 ± 0.011
ADVWSCAFCFDC | 0.595 ± 0.033
AEGGGWSFELEG | 0.746 ± 0.02
AFCVSVLVGLGG | 0.487 ± 0.052
AFFVAFLPLLSR | 0.552 ± 0.031
AFLPLYFLEGVL | 0.702 ± 0.024
AFLTSYHPPPLP | 0.69 ± 0.059
AFNRYASRIQEV | 0.695 ± 0.02

Sequence | protein stability index
AFPLFTDLTRVP | 0.7692 ± 0.0066
AFPPVIPALFSV | 0.697 ± 0.027
AFRGRGAFKYCL | 0.683 ± 0.1
AFSLRGRSVMFY | 0.688 ± 0.025
AFTLQSRLSSPS | 0.655 ± 0.012
AFVEGMAYLLII | 0.524 ± 0.017
AGAGLGVVLGWW | 0.684 ± 0.017
AGCVLDGRGVVA | 0.615 ± 0.074
AGGGGGRGSAGA | 0.711 ± 0.011
AGGGGGVTASGA | 0.71 ± 0.063
AGGGGRLTRSRA | 0.691 ± 0.087
AGGGHCVGMGVG | 0.642 ± 0.037
AGGPRVRGAAGR | 0.698 ± 0.055
AGKYCCFMVFVV | 0.649 ± 0.033
AGLESFFHYSYF | 0.7487 ± 0.0002
AGLIRDAVILIG | 0.631 ± 0.021
AGLTGSREGWRG | 0.638 ± 0.041
AGPGSSSTNHES | 0.585 ± 0.015
AGPPRGVCARWC | 0.635 ± 0.011
AGRGRGPRSAGS | 0.657 ± 0.014
AGRRVPVMMYGS | 0.691 ± 0.022
AGRVGGFFFVVA | 0.608 ± 0.017
AGSCRCRTCCLV | 0.61354 ± 0.00038
AGSLCSVVFFSG | 0.688 ± 0.23
AGSQEDGRSIKG | 0.669 ± 0.024

Sequence | protein stability index
AGSRGIVREIVL | 0.68 ± 0.052
AGVASTETREGG | 0.685 ± 0.0073
AGVGLAETAGDD | 0.677 ± 0.016
AGVGMGAVAGGS | 0.705 ± 0.02
AGWGRRRLDGGR | 0.684 ± 0.02
AHFSRRSSSSVS | 0.7 ± 0.02
AHLLLRPPLVAH | 0.486 ± 0.029
AHPLSPLSSPLR | 0.682 ± 0.081
AHVDWRLPEPNR | 0.7172 ± 0.0069
AIGAVEGGRMRE | 0.5748 ± 0.0048
AIQNSNLNTKVR | 0.675 ± 0.033
AIVWGVGCGSVG | 0.738 ± 0.12
AKLNQLMSKSQI | 0.678 ± 0.02
AKRRELKCRVNL | 0.674 ± 0.0087
AKSRQRKNGRTG | 0.708 ± 0.026
AKYPAQASTEPL | 0.702 ± 0.028
ALALCLVFFFSI | 0.574 ± 0.065
ALAYSLQRSPRV | 0.616 ± 0.045
ALESHFMVPSFP | 0.693 ± 0.043
ALGHAKDSVYGM | 0.679 ± 0.041
ALGRWAVSCNRG | 0.71 ± 0.11
ALLFCVCCGFFF | 0.541 ± 0.013
ALPGHFCVSFLP | 0.752 ± 0.033
ALPPPRPPPPSP | 0.692 ± 0.034
ALRAGGRPYSVS | 0.716 ± 0.014

Sequence | protein stability index
ALRGESWKSKQG | 0.664 ± 0.13
ALSRLLPPRPPV | 0.608 ± 0.027
ALTWVGEGLRGS | 0.699 ± 0.027
ALYQNWITITRN | 0.657 ± 0.022
AMGIPLLTTHFI | 0.674 ± 0.064
AMPLPPPTPPRS | 0.627 ± 0.027
ANHRPCIPPPPR | 0.657 ± 0.073
APACVAGGGQRL | 0.681 ± 0.081
APAFLSLVSFAS | 0.673 ± 0.017
APAPAPARTPTR | 0.683 ± 0.016
APAPSLPTSGEL | 0.701 ± 0.092
APDRGWAEGQCS | 0.727 ± 0.018
APGGACINIQLM | 0.663 ± 0.044
APHPTPYVRRHC | 0.74 ± 0.041
APLRAPYPPPPY | 0.7153 ± 0.0014
APLRSSCVFLFP | 0.744 ± 0.17
APLSRPLRLPHP | 0.692 ± 0.022
APPCILCLFPAC | 0.716 ± 0.024
APPLPPSPPSAR | 0.729 ± 0.11
APPLPSAPPPPR | 0.668 ± 0.031
APPPGSTFVSCE | 0.674 ± 0.045
APPPLPLPPPAP | 0.705 ± 0.033
APPPLPSPRPAA | 0.699 ± 0.04
APPPPPPPPSFP | 0.687 ± 0.055
APPPRPLKLFPP | 0.611 ± 0.028

Sequence | protein stability index
APPPRSPPPTPH | 0.696 ± 0.012
APPRPHTPLPRP | 0.75 ± 0.07
APPRSPRSLPPL | 0.658 ± 0.013
APPVILPPSGPP | 0.654 ± 0.028
APPVPLWVNPRT | 0.7 ± 0.025
APQTELTGVLFG | 0.685 ± 0.0071
APSCPKSLTFLD | 0.734 ± 0.035
APSLLAPPPLRP | 0.674 ± 0.017
APSLPPRLPWLY | 0.737 ± 0.015
APSPPSHPAAIP | 0.741 ± 0.042
APSPPVPTGPRP | 0.664 ± 0.059
APSTPTPPPPPP | 0.686 ± 0.042
APVQLDNKVVLM | 0.699 ± 0.04
APWSVSAGCFLF | 0.687 ± 0.036
AQTVNNALAKPI | 0.6551 ± 0.0049
ARAEDLLVFLPL | 0.691 ± 0.039
AREGARVVPVGR | 0.717 ± 0.014
AREGGGRAGRRE | 0.729 ± 0.021
ARGRAVRAAGAS | 0.688 ± 0.088
ARIECLIFPGCK | 0.626 ± 0.022
ARKCPLLYGPMA | 0.662 ± 0.04
ARKDVTRKSSND | 0.665 ± 0.064
ARLGKASYSVFS | 0.729 ± 0.027
ARNVDNIGYENS | 0.698 ± 0.013
ARRAPTFFSLWR | 0.658 ± 0.049

Sequence | protein stability index
ARRAVPGRGCEV | 0.683 ± 0.066
ARRGIVQSRCNW | 0.684 ± 0.064
ARRRINKKIKKV | 0.554 ± 0.018
ARVAGECRCGRT | 0.6554 ± 0.00095
ASAGTVYLTLLP | 0.697 ± 0.072
ASFMSPPSAPLA | 0.6953 ± 0.0047
ASGGGPLGNSSR | 0.684 ± 0.043
ASGPLPPHPIAD | 0.677 ± 0.011
ASKKSVVFKQKT | 0.6586 ± 0.0013
ASLGPCLPLSLN | 0.695 ± 0.03
ASPAASSPYGTR | 0.733 ± 0.051
ASPAIDSETSEY | 0.686 ± 0.16
ASPFCRPNRHLL | 0.648 ± 0.031
ASPLYPRPPVRG | 0.651 ± 0.014
ASPSSAAQPLSP | 0.641 ± 0.099
ASSPLFLPAIQP | 0.63 ± 0.06
ASTPLPTSPPPP | 0.66 ± 0.036
ASVIWGGFSDSR | 0.719 ± 0.015
ASVTSKSNCSGI | 0.663 ± 0.037
ASYFPLRLLGFL | 0.65 ± 0.051
ATDWPELFLPFG | 0.666 ± 0.007
ATILILHTSPQF | 0.655 ± 0.041
AVAIGQGLSAGV | 0.686 ± 0.053
AVCGPHLYPRVI | 0.643 ± 0.022
AVCSLLVYAPDR | 0.652 ± 0.059

Sequence | protein stability index
AVGLCGARSLGG | 0.634 ± 0.048
AVGPAGSQATIC | 0.706 ± 0.1
AVGPLTGPRPPV | 0.699 ± 0.073
AVGSAGRGRLGI | 0.673 ± 0.0078
AVGVRSSGRVSI | 0.7246 ± 0.0034
AVKRNDALGIQF | 0.718 ± 0.046
AVLFDQLGGRWR | 0.614 ± 0.061
AVLTDKKGRVRS | 0.703 ± 0.036
AVLTLRAPPSAL | 0.708 ± 0.025
AVPRPSPPPPPL | 0.674 ± 0.0086
AVQESVSHSLVL | 0.723 ± 0.0012
AVRLALAPQVGA | 0.617 ± 0.018
AVRPGEAGCAGL | 0.664 ± 0.12
AVRSILYRVATR | 0.729 ± 0.06
AVVVDWLAQVLH | 0.757 ± 0.068
AVYRPFPFRSGI | 0.699 ± 0.015
AWCGGVVGVAWL | 0.6661 ± 0.0062
AWCLLTRWDLLL | 0.609 ± 0.0014
AYGVGQERWVRE | 0.725 ± 0.061
AYKCLPAKGADS | 0.695 ± 0.047
AYLCLLPPFFTV | 0.674 ± 0.037
AYQFLCFSGMIT | 0.761 ± 0.27
AYSMMNLYNFAL | 0.67 ± 0.014
AYVSLRASLLSS | 0.633 ± 0.063
CAGRVWVGLCGV | 0.685 ± 0.094

Sequence | protein stability index
CARYFFLHPSLG | 0.67961 ± 1.3e-05
CASPSPPPAPVL | 0.68 ± 0.022
CCGLYLGAGCAY | 0.674 ± 0.017
CCLFLACANFFV | 0.551 ± 0.031
CCLSFMSPFFCF | 0.75 ± 0.026
CCVSFFISFGGR | 0.554 ± 0.03
CCVYFLSMFFVL | 0.575 ± 0.026
CDCIAFISRSFS | 0.675 ± 0.039
CDGPFRLVLGGG | 0.672 ± 0.018
CDRVIGSRGVTY | 0.688 ± 0.0071
CEAWLTDEGLRD | 0.742 ± 0.016
CERHWADRNTSV | 0.7445 ± 0.0064
CFCWLFLVGRAD | 0.5734 ± 0.0024
CFCYSLSINLNL | 0.522 ± 0.0072
CFGFAGVGSLSC | 0.752 ± 0.13
CFGFSLKFGTGK | 0.668 ± 0.033
CFKETLLKGSRQ | 0.718 ± 0.034
CFLPACPSPGDS | 0.737 ± 0.075
CFLPGFYFLFSI | 0.561 ± 0.033
CFPLPRPLPYME | 0.654 ± 0.12
CFSCLWVPLLPS | 0.649 ± 0.008
